± gives the uncertainty stated by the source.

This series is described as follows: amyloid nucleation score (Sup35N fusion, yeast selection) (log enrichment); library NNK1; higher = more nucleation; inactive = no reads after selection. In short, it runs like this: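 Using DiMSum, nucleation scores were taken as the log enrichment of output over input reads, centred on the mode score of non-aggregating sequences. The input and output reads came from Illumina sequencing of plasmid inserts, with sequences under 100 input reads excluded. The yeast were psi-negative, expressed Sup35N fused to peptides of 20 random codons, were induced with 100 μM copper sulfate for 24 hours, and were grown 7 days at 30°C on medium lacking adenine and uracil.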

Take YKSVRSVVWWCLRNSLHFVW: the amyloid nucleation score worked out at 1.91 ± 0.6.

As for YGTNRSWGDMEKISSHKRCW, the amyloid nucleation score is -0.321 ± 0.34.

As to LTVKCCDVSWVRFWYCIAGG, the amyloid nucleation score was determined as 6.618 ± 0.056. For YLPVYNY the value was 0.487 ± 0.65; for FQGTIR, 0.193 ± 1. The substance FSKVGCDKVIRPGKVPFRSF registered an amyloid nucleation score of 0.491 ± 0.9.

On to HSGTVVYNMEMKKINSCYLL, for which the amyloid nucleation score was 2.58 ± 0.1. As to ILGLSRGQ, the amyloid nucleation score turned out to be 0.015 ± 0.37. On to YCLDGAFALVVNSLWLITAA, for which the amyloid nucleation score result is “inactive”. In the case of LSNLDMVM, the amyloid nucleation score result was “inactive”. Substance IQSSPIR yielded an amyloid nucleation score of 0.464 ± 0.88. For AVHICYNYRSYSI the value was 0.5 ± 0.95; for DTQESSNIVRSLPRLVGLLG, 0.248 ± 0.43.

For the substance FLRCRFLYQQ, the amyloid nucleation score came out at 0.4 ± 0.39.

Regarding STDVEGRFTEMLSELMLYVD, the amyloid nucleation score result is “inactive”. For the substance NNMLILFTCGFYYKVYSPVQ, the amyloid nucleation score amounted to 3.18 ± 0.17. Take VYKFIFAYYYSEDVPFNRPL: the amyloid nucleation score result is “inactive”.

As for VKFDLMAI, the amyloid nucleation score was -0.777 ± 1.7. RIGVLNCWEVWADVTQREHL showed an amyloid nucleation score of -0.769 ± 1.1. In turn, YFFFYYYVVTIRKLLHVMGT showed an amyloid nucleation score of -0.854 ± 0.63. For FIVLAYCLSFWVAIYPEVHM the value was 0.581 ± 0.73. CTFTY showed an amyloid nucleation score of 0.053 ± 1.1. In turn, QARSGPTPLTTWRTRQVTLG showed an amyloid nucleation score of -0.178 ± 0.51. YSSGYLWFFIGTS showed an amyloid nucleation score of -1.38 ± 1.7. VPNFDQSNGQCIGDTVLMWC returned an amyloid nucleation score of 1.74 ± 0.49. As to VVSWDS, the amyloid nucleation score was -0.015 ± 0.41. To SSSVCASFAVWSCCASF belongs 4.52 ± 0.084. On to FNDGYSVAEA, for which the amyloid nucleation score worked out at 0.998 ± 0.48.

Turning to GGSGDTTSCMLFKRIVRR, the amyloid nucleation score result is “inactive”. QFSLPLCGYKRRHNGSFAEM registered an amyloid nucleation score of -1.14 ± 2.1. In turn, SLFRVDYIDRFLSQFVEYNG had an amyloid nucleation score of 0.333 ± 0.55. Substance RSSMYKYV returned an amyloid nucleation score of 0.523 ± 0.26. MMVRGMW yielded an amyloid nucleation score of 1.34 ± 0.35. For FAKVESLLWAGICTGRDEVM, the amyloid nucleation score was -0.318 ± 0.46. For LEALGYLWDKWAYYAMVMRS the value was 0.836 ± 0.97. Consider SILTSNMGQSHVSMDVLVVW, for which the amyloid nucleation score result was “inactive”. For the substance MCDIFAMLLIYQFDGKGTV, the amyloid nucleation score was found to be 0.151 ± 0.17.

RTSSIMSFPQCSCYSRRGVL gave an amyloid nucleation score of 1.73 ± 0.33. TVFGVL came in with an amyloid nucleation score of 0.705 ± 0.77. As for VKSYNGVGTMYLSRIMLYQY, the amyloid nucleation score stood at 0.163 ± 1.4. As for APMNVLEVTFSYSADLTVVV, the amyloid nucleation score was 0.167 ± 0.79. To IFVSSVRGAPYIYKCTKSRM belongs -0.504 ± 0.52.

Substance MGGTLRNRRGTKVRSELGGD came in with an amyloid nucleation score of -0.817 ± 1.7. GTRWSHTWWPGTNLMLCVQG yielded an amyloid nucleation score of -0.453 ± 0.26. In turn, HLICRFVHVNHCLVQQPKGS displayed an amyloid nucleation score of 1.37 ± 0.33. Regarding RLTFVYHRMERVKKDYCS, the amyloid nucleation score result was “inactive”.

Consider SILLWDLKANF, for which the amyloid nucleation score worked out at 0.346 ± 0.29.

Substance LYRCYESG registered an amyloid nucleation score of -0.378 ± 0.27. On to PSMEWWGL, for which the amyloid nucleation score was 0.158 ± 0.88. TICSSTFNFCSCFVTYLRMG yielded an amyloid nucleation score of 4.83 ± 0.072. The substance RGNWIRS registered an amyloid nucleation score of -0.533 ± 0.77.

The substance WDSLDIHQFNKDMWQTSG came in with an amyloid nucleation score of -0.909 ± 0.9. KTTCIDTIR yielded an amyloid nucleation score of 0.565 ± 0.43. For DASLVGLQLSHHSILFHCSM the value was 0.021 ± 1.2. To YNGVCSNW belongs 0.13 ± 0.48; to NSGGVWSHYFVVVMRYL, 0.083 ± 0.46. As for IYLLLCLENRVDMLE, the amyloid nucleation score entry is “inactive”. The substance YNLRMDGVCGTVLRYVVEGR gave an amyloid nucleation score of -0.403 ± 1.4. SSVCFVNRGSWPYSKVFNGC: the amyloid nucleation score is -0.019 ± 0.37.

HSQLLGMPFTSSVDS gave an amyloid nucleation score of 0.635 ± 0.97. GFSSMGCSVRNSHTAHGGCG: the amyloid nucleation score was 1.73 ± 0.17.

With NLSCIHGLYYGSRLVSGLYQ, the amyloid nucleation score was 0.15 ± 0.71. Consider NVTCSVISNGNLSEFDVFVI, for which the amyloid nucleation score is 0.122 ± 0.75. In the case of VCGRGKGDD, the amyloid nucleation score was -0.107 ± 0.27.

For the substance GFIVTGNVGTFNALLERVLT, the amyloid nucleation score came to 4.04 ± 0.13.

In the case of TNSFSVGCVRIP, the amyloid nucleation score amounted to 0.657 ± 0.68. NYYLECWYSCMGNTETSSKG yielded an amyloid nucleation score of 0.212 ± 0.53. For SACLQVWE the value was 0.284 ± 0.4; for ECRVCL, -0.807 ± 2.4. On to SEGMCIKLPVALNYSYVHLG, for which the amyloid nucleation score is 3.36 ± 0.088. For SSWSFHARWRVRAISCACN, the amyloid nucleation score is -0.062 ± 0.51. In the case of FTVSLTSLYYISITGLLARR, the amyloid nucleation score is -0.115 ± 0.52. Substance LLWAPILCLTGDNTVGFLSP had an amyloid nucleation score of 3.3 ± 0.066. As for KGQFF, the amyloid nucleation score stood at 0.835 ± 0.75. Consider SRVSTFGWIIRSEYYFFWAW, for which the amyloid nucleation score was found to be 0.666 ± 0.32. In the case of RMVIMLMGTHDRPFWGITGS, the amyloid nucleation score was determined as 0.925 ± 0.63. On to LNIRVIRGLGRMNAPVVSDL, for which the amyloid nucleation score amounted to 1.32 ± 0.57. In turn, GFRSGSCGFGIL registered an amyloid nucleation score of -1.14 ± 0.48. The substance VASRTLLCSLGRKRVVVCGC came in with an amyloid nucleation score of -0.667 ± 0.29. VRHGRSYSFLRQGDFMWCGS had an amyloid nucleation score of -0.306 ± 0.57.

Turning to HPVIADDLSYAAVIKRYLGV, the amyloid nucleation score worked out at 0.267 ± 0.41. In the case of TGVRHATTC, the amyloid nucleation score is 1.13 ± 0.19. Substance SRDEFCG gave an amyloid nucleation score of -0.326 ± 0.47. Consider WITYHEFWRLTKGCLSFTDL, for which the amyloid nucleation score amounted to 0.023 ± 0.55. DWGRLVYRFNCKDRNRDGAR had an amyloid nucleation score of 0.177 ± 0.41. Consider AIRSFRARIGN, for which the amyloid nucleation score stood at 0.177 ± 1.2. In the case of SRRWGLN, the amyloid nucleation score result was “inactive”. Substance IKGQGVKVSVVLTAGTCRLW came in with an amyloid nucleation score of 1.17 ± 0.19.

LCLYGVC: the amyloid nucleation score was -0.164 ± 0.56.

Regarding GTHTEYSQKTVLVDIFTELM, the amyloid nucleation score entry was “inactive”.

LVKLIWRISAWHSWFVSR displayed an amyloid nucleation score of 1.48 ± 0.8. For the substance WNYTGSFFMQYSMGISRRDG, the amyloid nucleation score is 1.59 ± 0.2. For VPNYHAISYIVDLTMCSLFQ the value was 8.383 ± 0.057.

LKTSRMFLG: the amyloid nucleation score was -0.68 ± 0.39. GIRPNFTVRFGGSWSQRNDR displayed an amyloid nucleation score of 0.749 ± 0.47. For AFMYYMKPSMPIYELRILEG the value was “inactive”. With SFVIFCRKGNWEWDD, the amyloid nucleation score was -0.671 ± 0.37. On to LMFGLAMVNENPRGLSELRR, for which the amyloid nucleation score came out at 0.065 ± 0.27.

VTFVIYNRDNSAEYGVVFC: the amyloid nucleation score was -0.46 ± 0.71. The substance SACSESSVIWTNFH showed an amyloid nucleation score of 0.292 ± 0.39. AGKGLAEARTYS: the amyloid nucleation score entry is “inactive”. The substance YNFFGCVCDAPPPKCLVYFM came in with an amyloid nucleation score of 7.596 ± 0.075. For HYSGIVWCSVREL, the amyloid nucleation score came to 1.72 ± 0.52. IMLVYMKTLGTM had an amyloid nucleation score of 3.7 ± 0.071.

In turn, GKAASRNGGMWKEMRFEACD showed an amyloid nucleation score of 0.046 ± 0.42. For RLPWLRAQNANLVLLLVNRR, the amyloid nucleation score worked out at 4.9 ± 0.074. To TYIYSTILEVFYLSLGHVII belongs 0.775 ± 0.35; to HVFPHLWKYYCMAVALVFLR, 1.38 ± 0.61. Take WVTSSAFEE: the amyloid nucleation score turned out to be 0.277 ± 0.7.

For YVSYVCLDWM, the amyloid nucleation score worked out at 6.7 ± 0.068. WMNGGQRSVWMCCMGRMHPW: the amyloid nucleation score came out at 7.738 ± 0.054. As to NYTNTMWSSFLDYVVD, the amyloid nucleation score was determined as 0.272 ± 0.88. With NYVYSSVVGLLIW, the amyloid nucleation score is -0.077 ± 0.19. The substance YLQEWRIGRVGCVGFTCRCR yielded an amyloid nucleation score of 0.279 ± 0.45. In the case of HVSVRSLRAVGVLRRRCGNG, the amyloid nucleation score result was “inactive”. Turning to LTCRYLACCSLRSGRQMLVG, the amyloid nucleation score is -0.694 ± 1.2. For PRLMLYCSLYDIESFIIGRC the value was “inactive”; for YNSRRAWDACCFGLVPLWEC, 2.08 ± 0.3; for CYCSEWNWRCNTELDVLFQS, 0.818 ± 0.4. In turn, PSSYF came in with an amyloid nucleation score of 0.45 ± 0.47.

HSGFNVAAYFTSMN gave an amyloid nucleation score of 0.467 ± 0.9. For the substance ILPRNFVSTNVANRFIEGSS, the amyloid nucleation score stood at 0.932 ± 0.66. NSWSFGPSGTQFGLSLFYGL gave an amyloid nucleation score of -0.979 ± 2.7. As for SGSMVRDRW, the amyloid nucleation score stood at 1.83 ± 0.27. In the case of ERRQSEKPGLLPSWS, the amyloid nucleation score came out at 0.46 ± 1.2. The substance LSCPRLVTLCCNLWDKYSLW yielded an amyloid nucleation score of 0.955 ± 0.28. MLYPNNKSVVLVVMELRPNA yielded an amyloid nucleation score of 0.648 ± 0.52. For the substance MVCLVVSFGQCASTVFLFHL, the amyloid nucleation score was 1.83 ± 0.49.

The substance VSPSIRMGNQGSSFSVLNAL had an amyloid nucleation score of 0.149 ± 0.55. The substance EVPMVFRGNEGVSRDCSLVG came in with an amyloid nucleation score of -0.469 ± 0.42. FGLVAGRR yielded an amyloid nucleation score of -0.188 ± 1.2.

Substance LPFNVL yielded an amyloid nucleation score of 3.09 ± 0.2. Turning to SWRHMFYGVILGWHICSSGS, the amyloid nucleation score came out at 0.925 ± 0.28. Take VKTYRPVSRGAKNKVRLAQG: the amyloid nucleation score amounted to 0.642 ± 0.49.

AGGQGRLSRKVYSTMWVESL returned an amyloid nucleation score of 1.17 ± 0.21.

For GSTYR, the amyloid nucleation score is -0.482 ± 0.51.

HGRIGLVWESGKCMTYLREV: the amyloid nucleation score stood at 0.191 ± 0.37. To RGCPAFDNVTSYDESSEWSY belongs 0.365 ± 0.62. Consider LKAIFVFFVEFRDPLIMRES, for which the amyloid nucleation score turned out to be 0.269 ± 0.79. Regarding NLGMALRSCMTSTHSVSMW, the amyloid nucleation score came out at 0.433 ± 0.47.

Consider RFSITSGNYFNN, for which the amyloid nucleation score was -0.971 ± 0.79.

These data come from the supplement of paper PMC12042874.
